Consider seven molecules from patent publication US20230391854A1 (Innovent, published 2023).

This experiment has as its target nCoV S (ACRO, SPN-C52H4) (SARS-CoV-2, UniProt P0DTC2 16-1213).

For orientation: EC50 means the concentration at which the effect is half-maximal. Lower therefore signals greater potency.

B1: P14-37 (antibody, V domains shown)
VH: EVQLVESGGGLVKPGGSLRLSCAASGFTFSNAWMSWVRQAPGKGLEWVGRIKRNSDGGTTDHAAPVTGRFIISRDDSKNTLYLQMNSLRTEDTAVYYCTTDLDTVVRRVVITDHDAFDIWGQGTMVTVSS
VL: DIQMTQSPSSLSASVGDRVTITCRASQSISSFLNWYQQKAGKAPKLLIYAASSLQSGVPSRFSGSGSGTDFSLTISNLQPEDFATYYCQQSYSTPSITFGQGTRLEIK
notes: also called candidate antibody molecule P14-37
The molecule B1 had an EC50 of 0.0161 nM. That is a picomolar value.

B2: P14-44 (antibody, V domains shown)
VH: QVQLVQSGAEVKKPGASVKVSCKASGYIFTSYSMHWVRQAPGQGLEWMGTIKPSDDSTNYAQKFQGRVSMTRDTSTSTVYMELSSLRYEDTAVYYCAREARGYYDRSGYYHPGYFDYWGQGTLVTVSS
VL: QSVLTQPASVSGSPGQSITISCTGTSSDVGGYNFVSWYQQHPGKAPKLMIYEVSDRPSGVSSRFSGSKSGNTASLTISGLQAEDEADYYCFSYTTSTTWVFGGGTKLTVL
notes: also called candidate antibody molecule P14-44
In turn, B2 displayed an EC50 of 0.0213 nM.

B3: P15-16 (antibody, V domains shown)
VH: QVQLVESGGGLVQPGRSLTLSCAASGFTFDDYAMHWVRQAPGKGLEWVSGISWNSGTIDYADSVKGRFTISRDNAKNSLYLQMNSLRAEDTALYYCATLPRERAYSGYDRIFYTIDVWGQGTTVTVSS
VL: not shown
notes: also called candidate antibody molecule P15-16
In the case of B3, the EC50 was found to be 0.0228 nM.

B4: P5-22 (antibody, V domains shown)
VH: EVQLVESGGGLVKPGGSLRLSCAASGFTFRDYDIIWIRQAPGKGLEWVSYISRSGSTIYYSDSVRGRFTISRDNAKNSVYLQMNSLRAEDTAVYYCARDFGFEGPRMDVWGQGTTVTVSS
VL: DIQMTQSPSSLSASVGDRVTITCQASQDIKNYLNWYQQKPGKAPKLLIYDASNLETGVPSRFSGSGSGTDFTFTISSLQPEDIATYYCQQFDNLPITFGQGTRLEIK
notes: also called candidate antibody molecule P5-22
B4 came in with an EC50 of 0.0226 nM.

B5: P3-11 (antibody, V domains shown)
VH: QVQLVESGGGLVQPGGSLRLSCAASGITVSSNYMSWVRQAPGKGLEWVSVIYSGGSTFYADPVKGRLTISRDNSKNTLYLQMNSVRVEDTAVYYCARGEGWELPFDYWGQGALVTVSS
VL: QSALTQPPSASGSPGQSVTISCTGTSSDVGGNKYVSWYQQHPGKAPKLIIYEVSKRPSGVPDRFSGSKSGNTASLTVSGLQAEDEADYHCSSYAGSNNLVFGGGTKLTVL
notes: also called candidate antibody molecule P3-11
Turning to B5, the EC50 was 0.0226 nM.

B6: P10-20 (antibody, V domains shown)
VH: QVQLVESGGGLVKPGGSLRLSCAASGFTFSDYYMSWIRQAPGKGLEWVSYISISSTYTNYADSVKGRFTISRDNAKNSLYLQMNSLRAEDTAVYYCVIAAAGKGHYYYGMDVWGQGTTVTVSS
VL: not shown
notes: also called candidate antibody molecule P10-20
B6 showed an EC50 of 0.0184 nM.

B7: P23-29 (antibody, V domains shown)
VH: QVQLQESGPGLVKPSETLSLTCTVSGDSISSSTYYWGWIRQPPGKGLEWIGSMYYGRSTYYNPSLKSRVTVSVDTSKNQLSLKVSSVTAADTAVYYCARHLGGVDYWGQGTLVTVSS
VL: DIQMTQSPSSLSASVGDRVTITCRASQGISNSLAWYQQEPGKAPKLLLYAASTLESGVPSRFSGSGSGADSTLTISSLQPEDFATYYCQQYYSASALTFGGGTKVEIK
notes: also called candidate antibody molecule P23-29
The molecule B7 showed an EC50 of 0.0364 nM.
